Laboratory results from patent US20130273029A1 (Novartis, published 2013).

Legend:
[1] = target: T1, Mu HER3: CD33-[Murine HER3, residues 20-643]-TAG (murine, UniProt Q61526 20-643); experiment: SET, IgG vs soluble HER3-Tag
T1 construct: also called mu HER3-Tag; not shown: C-terminal TAG (e.g., FLAG TAG)
Method: (§1) Affinity determination in solution was essentially performed as previously described (Friguet et al., (1985) J Immunol Methods 77:305-19). In order to improve the sensitivity and accuracy of the SET method, it was transferred from classical ELISA to ECL based technology (Haenel et al., (2005) Anal Biochem 339:182-84).
(§2) The data was evaluated with XLfit software (ID Business Solutions) applying customized fitting models.
(§3) Antibody affinity was determined by solution equilibrium titration (SET) as described above. The results are summarized in Table 3 and example titration curves for MOR12616 and MOR12925 are contained in FIG. 1.

[2] = target: T2, Hu HER3: CD33-[Human HER3, residues 20-640]-TAG (human, UniProt P21860 20-640); experiment: SET, IgG vs soluble HER3-Tag
T2 construct: also called hu HER3-Tag; HER3-Tag; not shown: C-terminal TAG (e.g., FLAG TAG)
T2 sequence (P21860 20-640): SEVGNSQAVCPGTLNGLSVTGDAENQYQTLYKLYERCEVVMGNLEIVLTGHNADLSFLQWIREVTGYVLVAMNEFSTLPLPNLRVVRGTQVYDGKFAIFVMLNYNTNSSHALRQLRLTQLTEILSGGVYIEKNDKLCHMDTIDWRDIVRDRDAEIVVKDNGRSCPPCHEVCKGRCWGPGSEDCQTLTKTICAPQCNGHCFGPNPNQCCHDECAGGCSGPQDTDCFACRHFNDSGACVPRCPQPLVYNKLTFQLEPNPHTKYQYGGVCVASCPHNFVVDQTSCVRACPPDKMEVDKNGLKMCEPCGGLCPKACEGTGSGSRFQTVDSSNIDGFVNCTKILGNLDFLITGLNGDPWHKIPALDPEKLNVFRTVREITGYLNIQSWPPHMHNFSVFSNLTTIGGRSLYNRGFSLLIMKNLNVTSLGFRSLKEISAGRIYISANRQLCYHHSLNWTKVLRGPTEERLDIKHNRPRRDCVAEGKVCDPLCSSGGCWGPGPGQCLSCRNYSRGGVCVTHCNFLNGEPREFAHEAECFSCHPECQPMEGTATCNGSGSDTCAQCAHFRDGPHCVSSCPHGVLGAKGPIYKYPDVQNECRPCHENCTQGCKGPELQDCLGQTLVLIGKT
Method: as §1, §2, §3

[3] = target: T3, Rat HER3: CD33-[Rat HER3, residues 20-643]-TAG (rat, UniProt Q62799 20-643); experiment: SET, IgG vs soluble HER3-Tag
T3 construct: also called ra HER3-Tag; not shown: C-terminal TAG (e.g., FLAG TAG)
T3 sequence (Q62799 20-643): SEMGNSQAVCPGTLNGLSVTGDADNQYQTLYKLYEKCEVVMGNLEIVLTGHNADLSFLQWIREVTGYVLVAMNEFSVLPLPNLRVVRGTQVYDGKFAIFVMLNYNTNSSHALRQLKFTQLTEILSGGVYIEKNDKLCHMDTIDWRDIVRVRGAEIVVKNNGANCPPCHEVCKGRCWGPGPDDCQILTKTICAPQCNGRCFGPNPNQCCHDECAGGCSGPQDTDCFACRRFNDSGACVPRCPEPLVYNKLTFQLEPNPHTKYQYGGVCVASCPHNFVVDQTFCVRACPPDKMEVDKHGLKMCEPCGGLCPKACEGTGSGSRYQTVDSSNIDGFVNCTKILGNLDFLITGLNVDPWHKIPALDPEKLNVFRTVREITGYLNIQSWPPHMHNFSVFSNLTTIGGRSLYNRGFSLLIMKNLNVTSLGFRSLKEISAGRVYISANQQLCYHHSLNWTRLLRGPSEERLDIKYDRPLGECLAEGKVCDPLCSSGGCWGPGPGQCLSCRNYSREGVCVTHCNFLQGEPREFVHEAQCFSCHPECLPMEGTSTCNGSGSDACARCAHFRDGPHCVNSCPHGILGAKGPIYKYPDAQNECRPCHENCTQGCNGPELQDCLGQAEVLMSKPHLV
Method: as §1, §2, §3

[4] = target: T4, Cyno HER3: CD33-[Cyno HER3, residues 20-643]-TAG (cynomolgus, UniProt G7PIG5 20-643); experiment: SET, IgG vs soluble HER3-Tag
T4 construct: also called cy HER3-Tag; not shown: C-terminal TAG (e.g., FLAG TAG)
T4 sequence (G7PIG5 entry or part of it): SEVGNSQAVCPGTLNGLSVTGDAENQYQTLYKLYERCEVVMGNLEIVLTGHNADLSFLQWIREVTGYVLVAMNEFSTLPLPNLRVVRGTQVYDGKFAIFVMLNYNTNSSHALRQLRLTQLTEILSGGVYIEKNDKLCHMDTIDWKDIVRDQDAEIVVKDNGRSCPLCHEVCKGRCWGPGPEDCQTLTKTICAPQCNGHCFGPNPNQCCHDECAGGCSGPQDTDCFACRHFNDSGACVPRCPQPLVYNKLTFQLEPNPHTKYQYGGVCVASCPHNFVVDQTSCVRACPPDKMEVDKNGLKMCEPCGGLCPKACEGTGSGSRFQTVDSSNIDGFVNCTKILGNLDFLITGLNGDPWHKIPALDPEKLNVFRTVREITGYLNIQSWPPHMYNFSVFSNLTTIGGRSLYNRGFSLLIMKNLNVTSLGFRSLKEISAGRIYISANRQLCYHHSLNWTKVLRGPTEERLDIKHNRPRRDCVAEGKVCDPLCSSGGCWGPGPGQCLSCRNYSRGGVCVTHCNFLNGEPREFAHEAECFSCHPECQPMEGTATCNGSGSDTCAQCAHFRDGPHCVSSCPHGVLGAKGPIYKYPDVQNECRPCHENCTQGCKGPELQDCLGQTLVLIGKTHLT
Method: as §1, §2, §3

[5] = target: T5, Human HER3, endogenous, on human cancer cell lines (SK-Br-3, MCF7, BT-474) (human, UniProt P21860 20-1342); experiment: cell-based or functional assay
T5 sequence (P21860 20-1342): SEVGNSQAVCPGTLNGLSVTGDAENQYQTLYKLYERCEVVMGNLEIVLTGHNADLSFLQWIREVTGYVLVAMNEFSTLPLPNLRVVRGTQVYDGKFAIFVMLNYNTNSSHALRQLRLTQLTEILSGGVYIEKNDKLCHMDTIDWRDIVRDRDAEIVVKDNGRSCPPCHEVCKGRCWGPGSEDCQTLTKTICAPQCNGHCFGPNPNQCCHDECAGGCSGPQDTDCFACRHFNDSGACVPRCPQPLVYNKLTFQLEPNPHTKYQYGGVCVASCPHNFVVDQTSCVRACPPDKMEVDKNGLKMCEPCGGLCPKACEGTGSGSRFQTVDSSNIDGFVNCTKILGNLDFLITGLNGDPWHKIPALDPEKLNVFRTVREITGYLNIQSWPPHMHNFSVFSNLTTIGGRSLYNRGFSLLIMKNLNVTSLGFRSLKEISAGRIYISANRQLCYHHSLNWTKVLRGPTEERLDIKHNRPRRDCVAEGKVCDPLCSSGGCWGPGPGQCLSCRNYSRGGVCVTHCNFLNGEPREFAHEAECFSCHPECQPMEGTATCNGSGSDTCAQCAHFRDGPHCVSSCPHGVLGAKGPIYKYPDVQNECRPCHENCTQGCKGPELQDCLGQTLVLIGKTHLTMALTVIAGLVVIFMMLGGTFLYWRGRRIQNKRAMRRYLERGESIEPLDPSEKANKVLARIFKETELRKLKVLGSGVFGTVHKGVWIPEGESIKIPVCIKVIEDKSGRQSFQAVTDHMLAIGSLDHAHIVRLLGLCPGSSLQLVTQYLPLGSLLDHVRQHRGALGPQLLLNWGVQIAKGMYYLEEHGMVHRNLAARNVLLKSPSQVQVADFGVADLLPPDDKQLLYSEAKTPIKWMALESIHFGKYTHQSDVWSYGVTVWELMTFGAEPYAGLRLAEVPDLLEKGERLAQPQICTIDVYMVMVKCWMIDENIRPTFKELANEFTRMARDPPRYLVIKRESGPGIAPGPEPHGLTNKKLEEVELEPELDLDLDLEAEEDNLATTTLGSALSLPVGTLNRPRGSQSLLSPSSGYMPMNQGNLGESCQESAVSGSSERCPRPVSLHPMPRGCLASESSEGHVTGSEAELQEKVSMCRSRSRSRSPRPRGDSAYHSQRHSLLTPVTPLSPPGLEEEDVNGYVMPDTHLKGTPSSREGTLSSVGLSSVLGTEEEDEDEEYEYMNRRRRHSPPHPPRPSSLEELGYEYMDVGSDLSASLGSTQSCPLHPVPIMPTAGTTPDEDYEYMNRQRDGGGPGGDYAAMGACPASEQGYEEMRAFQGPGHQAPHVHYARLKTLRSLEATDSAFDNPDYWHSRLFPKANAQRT

[6] = target: T5, Human HER3, endogenous, on human cancer …; experiment: cell-based or functional assay; remark: listed apart in the source
[7] = target: T5, Human HER3, endogenous, on human cancer …; experiment: cell-based or functional assay; remark: listed apart in the source

T1 sequence (Q61526 20-643): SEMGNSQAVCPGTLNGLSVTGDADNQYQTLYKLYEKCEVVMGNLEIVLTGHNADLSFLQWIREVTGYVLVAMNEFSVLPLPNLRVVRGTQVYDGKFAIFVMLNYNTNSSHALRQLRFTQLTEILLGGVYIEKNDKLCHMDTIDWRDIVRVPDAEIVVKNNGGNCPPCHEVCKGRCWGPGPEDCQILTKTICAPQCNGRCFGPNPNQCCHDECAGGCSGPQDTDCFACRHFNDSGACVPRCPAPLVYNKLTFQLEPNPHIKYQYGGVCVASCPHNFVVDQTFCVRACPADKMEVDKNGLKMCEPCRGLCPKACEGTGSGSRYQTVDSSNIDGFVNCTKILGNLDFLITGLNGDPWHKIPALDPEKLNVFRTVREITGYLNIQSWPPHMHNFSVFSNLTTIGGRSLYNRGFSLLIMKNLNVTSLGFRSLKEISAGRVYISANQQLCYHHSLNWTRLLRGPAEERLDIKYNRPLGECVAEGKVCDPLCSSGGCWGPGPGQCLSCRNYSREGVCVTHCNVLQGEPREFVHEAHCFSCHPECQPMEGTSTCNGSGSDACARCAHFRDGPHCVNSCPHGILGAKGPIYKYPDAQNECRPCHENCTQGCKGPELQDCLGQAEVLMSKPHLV

Kd [1] [nM]	Kd [2] [nM]	Kd [3] [nM]	Kd [4] [nM]	BT474 pHER3 % inhibition [5] [%]	MCF7 pHER3 % inhibition [5] [%]	MCF7 pHER3 IC50 [5] [pM]	SK-Br-3 pHER3 % inhibition [5] [%]	SK-Br-3 pHER3 IC50 [5] [pM]	MCF7 proliferation % inhibition [6] [%]	MCF7 proliferation IC50 [6] [nM]	SK-Br-3 proliferation % inhibition [6] [%]	SK-Br-3 proliferation IC50 [6] [nM]	BT-474 pAkt (S473) % inhibition [7] [%]	BT-474 pAkt (S473) IC50 [7] [pM]	SK-Br-3 pAkt (S473) % inhibition [7] [%]	SK-Br-3 pAkt (S473) IC50 [7] [pM]	BT474 pHER3 IC50 [5] [pM]	BT-474 proliferation % inhibition [6] [%]	BT-474 proliferation IC50 [6] [nM]	Binder
0.25	0.078	0.48	0.32	84	70	712	76	483	24	1.47	45	0.572	–	–	–	–	–	–	–	MOR12509 (antibody, human IgG1, kappa, V domains shown, tested as IgG) VH: QVQLVQSGAEVKKPGESLKISCKGSGYSFTNSWVAWVRQMPGKGLEWMGIIYPGNSDTIYSPSFQGQVTISADKSISTAYLQWSSLKASDTAMYYCARVHIIQPPSAWSYNAMDVWGQGTLVTVSS VL: DIQMTQSPSSLSASVGDRVTITCRASQSITHYLNWYQQKPGKAPKLLIFGASNLQSGVPSRFSGSGSGTDFTLTISSLQPEDFATYYCQQAFVDPSTTFGQGTKVEIKR
–	0.23	–	–	55	64	427	77	263	52	–	24	5.41	79	3040	91	212	1330	28	10.6	MOR13869 (antibody, human IgG1, kappa, V domains shown, tested as IgG) VH: QVQLVQSGAEVKKPGESLKISCKGSGYSFSNYWIAWVRQMPGKGLEWMGIIYPGGSDTIYSPSFQGQVTISADKSISTAYLQWSSLKASDTAMYYCARVHIIQPPSAWSYNAMDVWGQGTLVTVSS VL: DIQMTQSPSSLSASVGDRVTITCRASQSISTYLNWYQQKPGKAPKLLIFGASNLQSGVPSRFSGSGSGTDFTLTISSLQPEDFATYYCQQSITELFTFGQGTKVEIKR
–	0.133	–	–	68	75	189	83	205	58	–	29	0.251	81	537	92	78	894	39	1.72	MOR13868 (antibody, human IgG1, kappa, V domains shown, tested as IgG) VH: QVQLVQSGAEVKKPGESLKISCKGSGYSFSNYWIAWVRQMPGKGLEWMGIIYPGLSDTIYSPSFQGQVTISADKSISTAYLQWSSLKASDTAMYYCARVHIIQPPSAWSYNAMDVWGQGTLVTVSS VL: DIQMTQSPSSLSASVGDRVTITCRASQSISTYLNWYQQKPGKAPKLLIFGASNLQSGVPSRFSGSGSGTDFTLTISSLQPEDFATYYCQQSITELFTFGQGTKVEIKR
–	0.173	–	–	66	71	84	81	110	48	0.061	39	1.14	77	424	91	76	535	43	0.539	MOR13870 (antibody, human IgG1, kappa, V domains shown, tested as IgG) VH: QVQLVQSGAEVKKPGESLKISCKGSGYSFSNYWIAWVRQMPGKGLEWMGIIYPGTSDTIYSPSFQGQVTISADKSISTAYLQWSSLKASDTAMYYCARVHIIQPPSAWSYNAMDVWGQGTLVTVSS VL: DIQMTQSPSSLSASVGDRVTITCRASQSISTYLNWYQQKPGKAPKLLIFGASNLQSGVPSRFSGSGSGTDFTLTISSLQPEDFATYYCQQSITELFTFGQGTKVEIKR
–	0.193	–	–	68	74	43	83	105	58	–	32	1.29	83	1630	93	97	608	43	1	MOR13871 (antibody, human IgG1, kappa, V domains shown, tested as IgG) VH: QVQLVQSGAEVKKPGESLKISCKGSGYSFSNYWIAWVRQMPGKGLEWMGIIYPGSSDTIYSPSFQGQVTISADKSISTAYLQWSSLKASDTAMYYCARVHIIQPPSAWSYNAMDVWGQGTLVTVSS VL: DIQMTQSPSSLSASVGDRVTITCRASQSISTYLNWYQQKPGKAPKLLIFGASNLQSGVPSRFSGSGSGTDFTLTISSLQPEDFATYYCQQSITELFTFGQGTKVEIKR
0.2	0.055	0.75	0.4	85	73	450	78	157	25	0.483	44	0.355	–	–	–	–	34	–	–	MOR12510 (antibody, human IgG1, kappa, V domains shown, tested as IgG) VH: QVQLVQSGAEVKKPGESLKISCKGSGYSFTNSWVAWVRQMPGKGLEWMGIIYPGNSDTIYSPSFQGQVTISADKSISTAYLQWSSLKASDTAMYYCARVHIIQPPSAWSYNAMDVWGQGTLVTVSS VL: DIQMTQSPSSLSASVGDRVTITCRASQSISTYLNWYQQKPGKAPKLLIFGASNLQSGVPSRFSGSGSGTDFTLTISSLQPEDFATYYCQQDIDEPWTFGQGTKVEIKR
–	0.024	–	–	61	–	–	78	130	–	–	48	0.285	82	167	89	92	496	48	0.924	MOR13767 (antibody, human IgG1, kappa, V domains shown, tested as IgG) VH: QVQLVQSGAEVKKPGESLKISCKGSGYSFTTSWVAWVRQMPGKGLEWMGIIYPGQSDTIYSPSFQGQVTISADKSISTAYLQWSSLKASDTAMYYCARVHIIQPPSAWSYNAMDVWGQGTLVTVSS VL: DIQMTQSPSSLSASVGDRVTITCRASQSISTYLNWYQQKPGKAPKLLIFGASNLQSGVPSRFSGSGSGTDFTLTISSLQPEDFATYYCQQSITELFTFGQGTKVEIKR
–	0.03	–	–	71	78	267	83	107	69	0.056	41	0.31	84	472	95	120	643	42	0.376	MOR13867 (antibody, human IgG1, kappa, V domains shown, tested as IgG) VH: QVQLVQSGAEVKKPGESLKISCKGSGYSFSNYWIAWVRQMPGKGLEWMGIIYPGQSDTIYSPSFQGQVTISADKSISTAYLQWSSLKASDTAMYYCARVHIIQPPSAWSYNAMDVWGQGTLVTVSS VL: DIQMTQSPSSLSASVGDRVTITCRASQSISTYLNWYQQKPGKAPKLLIFGASNLQSGVPSRFSGSGSGTDFTLTISSLQPEDFATYYCQQSITELFTFGQGTKVEIKR
